Patent US20250215103A1 (Hoffmann-La Roche, published 2025)

Key:
[1] = biological target: T1, human PD1 on cells (Jurkat cells expressing human PD1; activated human T cells) (human, UniProt Q15116 25-288); assay: cell-based or functional assay
[2] = biological target: T1, human PD1 on cells (Jurkat cells …); assay: cell-based or functional assay; remark: listed apart in the source
[3] = biological target: T1, human PD1 on cells (Jurkat cells …); assay: cell-based or functional assay; remark: listed apart in the source
[4] = biological target: T2, human TfR on cells (Jurkat cells; activated human T cells) (human, UniProt P02786 1-760); assay: flow cytometry, Jurkat cells (WT, PD-1 low, PD-1 high), 2 h on ice, detection with biotinylated Cy5 (Median APC)
T2 construct: also called Transferrin receptor; CD71
T2 sequence (P02786 whole entry): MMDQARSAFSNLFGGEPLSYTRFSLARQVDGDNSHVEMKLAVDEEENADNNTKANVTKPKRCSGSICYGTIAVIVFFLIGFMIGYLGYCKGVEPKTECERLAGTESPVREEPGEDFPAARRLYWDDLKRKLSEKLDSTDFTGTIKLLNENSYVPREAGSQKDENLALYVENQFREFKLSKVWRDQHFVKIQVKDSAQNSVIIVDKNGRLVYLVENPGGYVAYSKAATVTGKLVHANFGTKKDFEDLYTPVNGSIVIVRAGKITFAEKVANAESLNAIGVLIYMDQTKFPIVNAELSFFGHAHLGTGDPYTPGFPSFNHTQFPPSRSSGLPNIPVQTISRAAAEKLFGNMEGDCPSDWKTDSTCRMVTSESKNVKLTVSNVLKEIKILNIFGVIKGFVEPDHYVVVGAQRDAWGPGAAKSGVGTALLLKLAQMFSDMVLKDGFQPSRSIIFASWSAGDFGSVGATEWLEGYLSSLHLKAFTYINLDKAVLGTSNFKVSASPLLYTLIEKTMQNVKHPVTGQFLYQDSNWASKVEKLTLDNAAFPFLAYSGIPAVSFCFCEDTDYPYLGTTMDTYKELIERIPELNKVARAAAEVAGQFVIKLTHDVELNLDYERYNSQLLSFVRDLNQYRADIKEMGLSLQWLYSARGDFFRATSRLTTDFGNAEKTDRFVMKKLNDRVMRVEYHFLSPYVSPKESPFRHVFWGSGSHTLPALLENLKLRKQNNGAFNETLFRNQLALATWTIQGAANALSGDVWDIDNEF

[5] = biological target: T1, human PD1 on cells (Jurkat cells …); assay: cell-based or functional assay; remark: listed apart in the source
[6] = biological target: T1, human PD1 on cells (Jurkat cells …); assay: cell-based or functional assay; remark: listed apart in the source

T1 sequence (Q15116 25-288 limits assumed): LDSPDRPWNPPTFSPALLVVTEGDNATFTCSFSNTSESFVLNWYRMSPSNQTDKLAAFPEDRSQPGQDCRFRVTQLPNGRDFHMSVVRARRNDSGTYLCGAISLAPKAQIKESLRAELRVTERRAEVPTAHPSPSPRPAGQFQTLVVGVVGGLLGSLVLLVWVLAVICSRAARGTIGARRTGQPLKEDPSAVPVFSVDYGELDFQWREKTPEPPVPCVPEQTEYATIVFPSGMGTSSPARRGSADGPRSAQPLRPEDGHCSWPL

| Binder | EC50 (pM) of Granzyme B production, mMLR [1] [pM] | Fold activity vs. control (EC50 of Granzyme B, mMLR), control 8158 [2] [fold vs 8158] | Fold activity vs. control (EC50 of Granzyme B, mMLR), control PD1-0103-0312 [3] [fold vs PD1-0103-0312] | binding result [4] | Fold activity vs. control (EC50 of Granzyme B, mMLR), control 8159 [2] [fold vs 8159] | Fold activity vs. control (EC50 of Granzyme B, mMLR), control PD1-0103-312 [5] [fold vs PD1-0103-312] | Fold activity vs. control (EC50 of Granzyme B, mMLR), control 8019 [6] [fold vs 8019] |
| --- | --- | --- | --- | --- | --- | --- | --- |
| bispecific 2+1 CrossMab 8156 (PD1-0103-0312/TfR(51A165) BBB-format) (bispecific antibody, human IgG1, kappa, L234A L235A) light 1: EVQLLESGGGLVQPGGSLRLSCAASGFSFSSYTMSWVRQAPGKGLEWVATISGGGRDIYYPDSVKGRFTISRDNSKNTLYLQMNSLRAEDTAVYYCVLLTGRVYFALDSWGQGTLVTVSSASVAAPSVFIFPPSDEQLKSGTASVVCLLNNFYPREAKVQWKVDNALQSGNSQESVTEQDSKDSTYSLSSTLTLSKADYEKHKVYACEVTHQGLSSPVTKSFNRGEC light 2: QIVLTQSPAIMSASPGEKVTVTCSASSSIRYMHWYQQKPGTSPKRWIYDTSELASGVPARFSGSGSGTSYSLTINSMEAEDAATYYCHQRSSYPFTFGGGTKLEIKRTVAAPSVFIFPPSDRKLKSGTASVVCLLNNFYPREAKVQWKVDNALQSGNSQESVTEQDSKDSTYSLSSTLTLSKADYEKHKVYACEVTHQGLSSPVTKSFNRGEC heavy 1: DIVMTQSPDSLAVSLGERATINCKASESVDTSDNSFIHWYQQKPGQSPKLLIYRSSTLESGVPDRFSGSGSGTDFTLTISSLQAEDVAVYYCQQNYDVPWTFGQGTKVEIKSSASTKGPSVFPLAPSSKSTSGGTAALGCLVKDYFPEPVTVSWNSGALTSGVHTFPAVLQSSGLYSLSSVVTVPSSSLGTQTYICNVNHKPSNTKVDKKVEPKSCDKTHTCPPCPAPEAAGGPSVFLFPPKPKDTLMISRTPEVTCVVVDVSHEDPEVKFNWYVDGVEVHNAKTKPREEQYNSTYRVVSVLTVLHQDWLNGKEYKCKVSNKALGAPIEKTISKAKGQPREPQVCTLPPSRDELTKNQVSLSCAVKGFYPSDIAVEWESNGQPENNYKTTPPVLDSDGSFFLVSKLTVDKSRWQQGNVFSCSVMHEALHNHYTQKSLSLSPGKGGGGSGGGGSEVQLQQSGPELVKPGASVKMSCKASGYTFTSYVMHWVKQKPGQGLEWIGYVNPYNDDTKYNEKFRGKATLTSDKSSSTAYMELSSLTSEDSAVYYCARSYYYYSMDNWGQGTSVTVSSASTKGPSVFPLAPSSKSTSGGTAALGCLVEDYFPEPVTVSWNSGALTSGVHTFPAVLQSSGLYSLSSVVTVPSSSLGTQTYICNVNHKPSNTKVDEKVEPKSCD heavy 2: not shown | 25.8 | 4.44 | 7.83 | – | – | – | – |
| TfR/Nada/anti-Biotin control antibody 9903 (bispecific antibody, human IgG1, kappa, L234A L235A, monovalent for TfR; also called αTfR/Nada; Nada/αTfR) heavy 1: not shown light 1: QIVLTQSPAIMSASPGEKVTVTCSASSSIRYMHWYQQKPGTSPKRWIYDTSELASGVPARFSGSGSGTSYSLTINSMEAEDAATYYCHQRSSYPFTFGGGTKLEIKRTVAAPSVFIFPPSDEQLKSGTASVVCLLNNFYPREAKVQWKVDNALQSGNSQESVTEQDSKDSTYSLSSTLTLSKADYEKHKVYACEVTHQGLSSPVTKSFNRGEC heavy 2: EVQLVESGGGLVQPGGSLRLSCAASGFSIAGTAIHWVRQAPGKGLEWVASISPGGGSTAYADSVKGRFTISADTSKNTAYLQMNSLRAEDTAVYYCSRSGGSGASAMDYWGQGTLVTVSSASVAAPSVFIFPPSDEQLKSGTASVVCLLNNFYPREAKVQWKVDNALQSGNSQESVTEQDSKDSTYSLSSTLTLSKADYEKHKVYACEVTHQGLSSPVTKSFNRGECDKTHTCPPCPAPEAAGGPSVFLFPPKPKDTLMISRTPEVTCVVVDVSHEDPEVKFNWYVDGVEVHNAKTKPREEQYNSTYRVVSVLTVLHQDWLNGKEYKCKVSNKALGAPIEKTISKAKGQPREPQVCTLPPSRDELTKNQVSLSCAVKGFYPSDIAVEWESNGQPENNYKTTPPVLDSDGSFFLVSKLTVDKSRWQQGNVFSCSVMHEALHNHYTQKSLSLSPGKGGGGSGGGGSDIQMTQSPSSLSASVGDRVTITCRASGNIHNYLSWYQQKPGKVPKLLIYSAKTLADGVPSRFSGSGSGTDFTLTISSLQPEDVATYYCQHFWSSIYTFGCGTKLEIKRGGGGSGGGGSGGGGSGGGGSQVQLVQSGAEVKKPGSSVKVSCKSSGFNNKDTFFQWVRQAPGQCLEWMGRIDPANGFTKYAQKFQGRVTITADTSTSTAYMELSSLRSEDTAVYYCARWDTYGAAWFAYWGQGTLVTVSS light 2: DIQMTQSPSSLSASVGDRVTITCRASQDVGSGVAWYQQKPGKAPKLLIGSASGLYSGVPSRFSGSRSGTDFTLTISSLQPEDFATYYCQQSASGGSTFGQGTKVEIKSSASTKGPSVFPLAPSSKSTSGGTAALGCLVKDYFPEPVTVSWNSGALTSGVHTFPAVLQSSGLYSLSSVVTVPSSSLGTQTYICNVNHKPSNTKVDKKVEPKSC | – | – | – | binds | – | – | – |
| bispecific 2+1 CrossMab 8157 (PD1-0103-0312/TfR(51A165) TCB-format) (bispecific antibody, human IgG1, kappa, L234A L235A) light 1: EVQLLESGGGLVQPGGSLRLSCAASGFSFSSYTMSWVRQAPGKGLEWVATISGGGRDIYYPDSVKGRFTISRDNSKNTLYLQMNSLRAEDTAVYYCVLLTGRVYFALDSWGQGTLVTVSSASVAAPSVFIFPPSDEQLKSGTASVVCLLNNFYPREAKVQWKVDNALQSGNSQESVTEQDSKDSTYSLSSTLTLSKADYEKHKVYACEVTHQGLSSPVTKSFNRGEC light 2: QIVLTQSPAIMSASPGEKVTVTCSASSSIRYMHWYQQKPGTSPKRWIYDTSELASGVPARFSGSGSGTSYSLTINSMEAEDAATYYCHQRSSYPFTFGGGTKLEIKRTVAAPSVFIFPPSDRKLKSGTASVVCLLNNFYPREAKVQWKVDNALQSGNSQESVTEQDSKDSTYSLSSTLTLSKADYEKHKVYACEVTHQGLSSPVTKSFNRGEC heavy 1: DIVMTQSPDSLAVSLGERATINCKASESVDTSDNSFIHWYQQKPGQSPKLLIYRSSTLESGVPDRFSGSGSGTDFTLTISSLQAEDVAVYYCQQNYDVPWTFGQGTKVEIKSSASTKGPSVFPLAPSSKSTSGGTAALGCLVKDYFPEPVTVSWNSGALTSGVHTFPAVLQSSGLYSLSSVVTVPSSSLGTQTYICNVNHKPSNTKVDKKVEPKSCDGGGGSGGGGSEVQLQQSGPELVKPGASVKMSCKASGYTFTSYVMHWVKQKPGQGLEWIGYVNPYNDDTKYNEKFRGKATLTSDKSSSTAYMELSSLTSEDSAVYYCARSYYYYSMDNWGQGTSVTVSSASTKGPSVFPLAPSSKSTSGGTAALGCLVEDYFPEPVTVSWNSGALTSGVHTFPAVLQSSGLYSLSSVVTVPSSSLGTQTYICNVNHKPSNTKVDEKVEPKSCDKTHTCPPCPAPEAAGGPSVFLFPPKPKDTLMISRTPEVTCVVVDVSHEDPEVKFNWYVDGVEVHNAKTKPREEQYNSTYRVVSVLTVLHQDWLNGKEYKCKVSNKALGAPIEKTISKAKGQPREPQVCTLPPSRDELTKNQVSLSCAVKGFYPSDIAVEWESNGQPENNYKTTPPVLDSDGSFFLVSKLTVDKSRWQQGNVFSCSVMHEALHNHYTQKSLSLSP heavy 2: not shown | 12 | – | 6.6 | – | 16.3 | – | – |

Second part, the binder after the results:

| EC50 (pM) of Granzyme B production, mMLR [1] [pM] | Fold activity vs. control (EC50 of Granzyme B, mMLR), control 8158 [2] [fold vs 8158] | Fold activity vs. control (EC50 of Granzyme B, mMLR), control PD1-0103-0312 [3] [fold vs PD1-0103-0312] | binding result [4] | Fold activity vs. control (EC50 of Granzyme B, mMLR), control 8159 [2] [fold vs 8159] | Fold activity vs. control (EC50 of Granzyme B, mMLR), control PD1-0103-312 [5] [fold vs PD1-0103-312] | Fold activity vs. control (EC50 of Granzyme B, mMLR), control 8019 [6] [fold vs 8019] | Binder |
| --- | --- | --- | --- | --- | --- | --- | --- |
| 121 | – | – | – | – | 1.92 | 1510 | bispecific CrossMab 8017 (Pembrolizumab/1026) (bispecific antibody, human IgG1, kappa, L234A L235A) heavy 1: QSMQESGPGLVKPSQTLSLTCTVSGFSLSSYAMSWIRQHPGKGLEWIGYIWSGGSTDYASWAKSRVTISKTSTTVSLKLSSVTAADTAVYYCARRYGTSYPDYGDASGFDPWGQGTLVTVSSASTKGPSVFPLAPSSKSTSGGTAALGCLVEDYFPEPVTVSWNSGALTSGVHTFPAVLQSSGLYSLSSVVTVPSSSLGTQTYICNVNHKPSNTKVDEKVEPKSCDKTHTCPPCPAPEAAGGPSVFLFPPKPKDTLMISRTPEVTCVVVDVSHEDPEVKFNWYVDGVEVHNAKTKPREEQYNSTYRVVSVLTVLHQDWLNGKEYKCKVSNKALGAPIEKTISKAKGQPREPQVCTLPPSRDELTKNQVSLSCAVKGFYPSDIAVEWESNGQPENNYKTTPPVLDSDGSFFLVSKLTVDKSRWQQGNVFSCSVMHEALHNHYTQKSLSLSP light 1: AIQLTQSPSSLSASVGDRVTITCRASQSISSYLAWYQQKPGKAPKLLIYRASTLASGVPSRFSGSGSGTDFTLTISSLQPEDFATYYCQQNYASSNVDNTFGGGTKVEIKRTVAAPSVFIFPPSDRKLKSGTASVVCLLNNFYPREAKVQWKVDNALQSGNSQESVTEQDSKDSTYSLSSTLTLSKADYEKHKVYACEVTHQGLSSPVTKSFNRGEC heavy 2: not shown light 2: QVQLVQSGVEVKKPGASVKVSCKASGYTFTNYYMYWVRQAPGQGLEWMGGINPSNGGTNFNEKFKNRVTLTTDSSTTTAYMELKSLQFDDTAVYYCARRDYRFDMGFDYWGQGTTVTVSSASVAAPSVFIFPPSDEQLKSGTASVVCLLNNFYPREAKVQWKVDNALQSGNSQESVTEQDSKDSTYSLSSTLTLSKADYEKHKVYACEVTHQGLSSPVTKSFNRGEC |
| 139 | – | – | – | – | 5.97 | 4720 | bispecific CrossMab 8018 (Pembrolizumab/51A165) (bispecific antibody, human IgG1, kappa, L234A L235A) heavy 1: EVQLQQSGPELVKPGASVKMSCKASGYTFTSYVMHWVKQKPGQGLEWIGYVNPYNDDTKYNEKFRGKATLTSDKSSSTAYMELSSLTSEDSAVYYCARSYYYYSMDNWGQGTSVTVSSASTKGPSVFPLAPSSKSTSGGTAALGCLVEDYFPEPVTVSWNSGALTSGVHTFPAVLQSSGLYSLSSVVTVPSSSLGTQTYICNVNHKPSNTKVDEKVEPKSCDKTHTCPPCPAPEAAGGPSVFLFPPKPKDTLMISRTPEVTCVVVDVSHEDPEVKFNWYVDGVEVHNAKTKPREEQYNSTYRVVSVLTVLHQDWLNGKEYKCKVSNKALGAPIEKTISKAKGQPREPQVCTLPPSRDELTKNQVSLSCAVKGFYPSDIAVEWESNGQPENNYKTTPPVLDSDGSFFLVSKLTVDKSRWQQGNVFSCSVMHEALHNHYTQKSLSLSP light 1: QIVLTQSPAIMSASPGEKVTVTCSASSSIRYMHWYQQKPGTSPKRWIYDTSELASGVPARFSGSGSGTSYSLTINSMEAEDAATYYCHQRSSYPFTFGGGTKLEIKRTVAAPSVFIFPPSDRKLKSGTASVVCLLNNFYPREAKVQWKVDNALQSGNSQESVTEQDSKDSTYSLSSTLTLSKADYEKHKVYACEVTHQGLSSPVTKSFNRGEC heavy 2: not shown light 2: QVQLVQSGVEVKKPGASVKVSCKASGYTFTNYYMYWVRQAPGQGLEWMGGINPSNGGTNFNEKFKNRVTLTTDSSTTTAYMELKSLQFDDTAVYYCARRDYRFDMGFDYWGQGTTVTVSSASVAAPSVFIFPPSDEQLKSGTASVVCLLNNFYPREAKVQWKVDNALQSGNSQESVTEQDSKDSTYSLSSTLTLSKADYEKHKVYACEVTHQGLSSPVTKSFNRGEC |
